Reference: the supplement of paper PMC12764529
± gives the half width of the 95% confidence interval.

How the values were obtained:
[1] = folding stability dG unfold from chymotrypsin proteolysis; higher = more stable
In short: (§1)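 Digests were run with trypsin and chymotrypsin at 11 concentrations in threefold dilutions, plus a no-protease condition, on designed mini-proteins in a PA-tagged cDNA display construct. The mini-proteins were under 80 residues, had no cysteine, and were kept only when AlphaFold2 dimer inter-PAE was above 15. After sequencing, Bayesian fitting of the counts gave K50, from which unfolding free energy was derived against a sequence-predicted unfolded-state K50 and a shared folded-state K50, per protease or combined.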

[2] = folding stability dG unfold from trypsin proteolysis; higher = more stable
In short: as §1

[3] = folding stability dG unfold (combined trypsin and chymotrypsin); higher = more stable
In short: as §1

Sequence: SAGGLLEELGLEIEEVEVEVEEVEVGQTVRIRVKVKGEDGEEFEIELEIRLPPPPVEVEEEVEEEEESAGGS [r8_216_TrROS_Hall]
- folding stability dG unfold [1]: 1.83 ± 0.09 kcal/mol
- folding stability dG unfold [2]: 1.91 ± 0.2 kcal/mol
- folding stability dG unfold [3]: 1.82 ± 0.14 kcal/mol

Sequence: SAGGLLPLLKEIAEALGLPEIESLSFDPETGELTLRFRGPEPYLLRIPFRPVKDGGIPLDIEVYPTDLSAGG [r13_410_TrMRF]
- folding stability dG unfold [1]: 3.006 ± 0.03 kcal/mol
- folding stability dG unfold [2]: 2.86 ± 0.06 kcal/mol
- folding stability dG unfold [3]: 3.02 ± 0.056 kcal/mol

Sequence: SAGGLPEEVEKLAEILAKLPPVVPVPVTFPDGVEVVYFPPTGFVAVRFYERDENGEWVLVGETFFPVSAGGS [r16_243_TrMRF]
- folding stability dG unfold [1]: 3.235 ± 0.016 kcal/mol
- folding stability dG unfold [2]: 2.44 ± 0.042 kcal/mol
- folding stability dG unfold [3]: 2.98 ± 0.05 kcal/mol

Sequence: SAGGLSGEAKLVEAEFEPETGTVRVFAEAGDELLTFEFKGTPFLPPIPASISPESLEKDEPVIRVSGSAGGS [r16_809_TrMRF]
- folding stability dG unfold [1]: 0.143 ± 0.14 kcal/mol
- folding stability dG unfold [2]: 0.597 ± 0.059 kcal/mol
- folding stability dG unfold [3]: 0.422 ± 0.079 kcal/mol

Sequence: SAGGLSLEELADELAQENGWEITEAEPIEFTPNTIRFEVTVRMPDGKRRTIEIEIEIPPPKPPDQPKSAGGS [r8_309_TrROS]
- folding stability dG unfold [1]: 1.63 ± 0.058 kcal/mol
- folding stability dG unfold [2]: 1.15 ± 0.067 kcal/mol
- folding stability dG unfold [3]: 1.39 ± 0.13 kcal/mol

Sequence: SAGGLTPEQWREIAKNFANELAKEYQERGPNVKIDVEVDPEEGYFKIKVENNDENMPRTITIPWDDIRSAGG [r13_354_TrROS]
- folding stability dG unfold [1]: 1.35 ± 0.066 kcal/mol
- folding stability dG unfold [2]: 0.701 ± 0.046 kcal/mol
- folding stability dG unfold [3]: 1.1 ± 0.079 kcal/mol

Sequence: SAGGLYKKDPDGQYVKPVPKVPPIPIEIKFPNGVEVKIEIYPYSNHITIEYTGPNPELANELIQEIIQSAGG [r13_701_TrROS]
- folding stability dG unfold [1]: 0.624 ± 0.2 kcal/mol
- folding stability dG unfold [2]: 0.425 ± 0.091 kcal/mol
- folding stability dG unfold [3]: 0.702 ± 0.19 kcal/mol

Sequence: SAGGMANPEDFKVVESLEFRDPDNGKPFTIEIAKPPDNNVPIMIWHNGSMYMFVIDGDKIEVFPIKNSAGGS [r16_711_TrROS]
- folding stability dG unfold [1]: 1.88 ± 0.1 kcal/mol
- folding stability dG unfold [2]: 1.5 ± 0.04 kcal/mol
- folding stability dG unfold [3]: 1.75 ± 0.091 kcal/mol

Sequence: SAGGMEIKEVKYDPEEGYLYIVVAAPPSVSPSEVVPAVVRAARELTGAEVEVEVDPETGYVVAKVPVSAGGS [r8_314_TrMRF]
- folding stability dG unfold [1]: 1.92 ± 0.043 kcal/mol
- folding stability dG unfold [2]: 1.43 ± 0.026 kcal/mol
- folding stability dG unfold [3]: 1.77 ± 0.089 kcal/mol

Sequence: SAGGMEIKIENIEINPDKKTIQYNFEIYHDGQPFKMDISIEVDPKNGLYKITVTYPDFPGVKHTLYIPSAGG [r13_615_TrROS]
- folding stability dG unfold [1]: 5.27 ± 0.15 kcal/mol
- folding stability dG unfold [2]: 3.38 ± 0.23 kcal/mol
- folding stability dG unfold [3]: 5.35 ± 0.54 kcal/mol

Sequence: SAGGMESSVTTTPDPNSDTTTTTTTVPLPDETTTTTTTTTTAPGTVTTTTTTYPPGGTPTTTTSTTASAGGS [r16_733_JUSTAS]
- folding stability dG unfold [1]: 1.61 ± 0.052 kcal/mol
- folding stability dG unfold [2]: 2.38 ± 0.17 kcal/mol
- folding stability dG unfold [3]: 1.92 ± 0.12 kcal/mol

Sequence: SAGGMESTSIPLEFKFEGDEEKAKKKVEEEAKKIAEEKGIEIKIEVKFDPNKPTATVTILVKGKEVEESAGG [r13_845_JUSTAS]
- folding stability dG unfold [1]: -0.281 ± 0.25 kcal/mol
- folding stability dG unfold [2]: -0.411 ± 0.058 kcal/mol
- folding stability dG unfold [3]: -0.285 ± 0.22 kcal/mol

Sequence: SAGGMEVEITIVVPPGASLEEIEELARKLAEELGLSVENIKVTVIVVEPEEEEEEEEEKKLKEEEEKSAGGS [r16_240_TrROS_Hall]
- folding stability dG unfold [1]: 3.04 ± 0.56 kcal/mol
- folding stability dG unfold [2]: 1.93 ± 0.17 kcal/mol
- folding stability dG unfold [3]: 2.57 ± 0.55 kcal/mol

Sequence: SAGGMHLVIPFDSPEEALEAAKELKKEFEEKGYTVKVYYFPETGDIHVLVEMKTDGKTKYLNVTVPFPSAGG [r13_641_TrMRF]
- folding stability dG unfold [1]: 2.05 ± 0.036 kcal/mol
- folding stability dG unfold [2]: 0.83 ± 0.034 kcal/mol
- folding stability dG unfold [3]: 1.73 ± 0.057 kcal/mol

Sequence: SAGGMIAPDEKVLVKVTLSEGTTSRELEFEFEVPPGATEEELKQRVIDEIPEEPRKNWKVEVEIKPVSAGGS [r16_321_JUSTAS]
- folding stability dG unfold [1]: 0.198 ± 0.24 kcal/mol
- folding stability dG unfold [2]: 0.918 ± 0.056 kcal/mol
- folding stability dG unfold [3]: 0.596 ± 0.21 kcal/mol

Sequence: SAGGMIEKIKEAAKKLGLKVKIEEVKFDKKTKKVTIKITLENGKKIEITVEMSEEELLNAIKELIKKSAGGS [r16_153_TrROS_Hall]
- folding stability dG unfold [1]: 3.62 ± 0.091 kcal/mol
- folding stability dG unfold [2]: 2.52 ± 0.11 kcal/mol
- folding stability dG unfold [3]: 3.34 ± 0.14 kcal/mol

Sequence: SAGGMIEVFVEGLTLEETLRRLAEEYPDVPEVVVFFPDGTAVFFRRDGDEVEVVEVVPVGPVAPDELSAGGS [r8_225_TrMRF]
- folding stability dG unfold [1]: 3.118 ± 0.017 kcal/mol
- folding stability dG unfold [2]: 2.59 ± 0.068 kcal/mol
- folding stability dG unfold [3]: 2.93 ± 0.061 kcal/mol

Sequence: SAGGMIIIEGMSEEEIKNLIKEAIKKGEKVKKIVIRVNGKLYLITVDAKTKKITVEEIPLEELKKKKSAGGS [r16_481_TrROS_Hall]
- folding stability dG unfold [1]: 1.85 ± 0.067 kcal/mol
- folding stability dG unfold [2]: 0.692 ± 0.095 kcal/mol
- folding stability dG unfold [3]: 1.4 ± 0.21 kcal/mol

Sequence: SAGGMIPEELIRKLFEDGKPVPLEQIVELIEKLTGRPVRLEEGEDKFRIVVLDPDTPELLDEIEIDFSAGGS [r8_105_TrMRF]
- folding stability dG unfold [1]: 1.57 ± 0.028 kcal/mol
- folding stability dG unfold [2]: 1.43 ± 0.086 kcal/mol
- folding stability dG unfold [3]: 1.55 ± 0.091 kcal/mol

Sequence: SAGGMIQIERDKDGYLRITIWVPGDPKEAEEIAENIIELLQDLGFDEVDIDYEPFDGGVMIEITVKVSAGGS [r8_113_TrROS]
- folding stability dG unfold [1]: 3.49 ± 0.083 kcal/mol
- folding stability dG unfold [2]: 2.9 ± 0.12 kcal/mol
- folding stability dG unfold [3]: 3.29 ± 0.077 kcal/mol

Sequence: SAGGMIRIERDGDRLTIQIPMPPGQPPTPEQVEEFARDILKKLGPDVRVKDVSHDPNGGFTIELKVPSAGGS [r8_103_TrROS]
- folding stability dG unfold [1]: 2.15 ± 0.051 kcal/mol
- folding stability dG unfold [2]: 1.48 ± 0.028 kcal/mol
- folding stability dG unfold [3]: 1.81 ± 0.069 kcal/mol

Sequence: SAGGMIRITEGPNYYKITFWMPPNNPSLLEEIADFFGNPKVDTEPIPEDGMTRHEITLPLDDPEAIKSAGGS [r16_479_TrROS]
- folding stability dG unfold [1]: 1.37 ± 0.23 kcal/mol
- folding stability dG unfold [2]: 0.765 ± 0.11 kcal/mol
- folding stability dG unfold [3]: 1.19 ± 0.27 kcal/mol

Sequence: SAGGMISEEDIEAAAKAIVEAAKNGDPERIEEEYARLEEALEEAEKEGDPERRGRLAKAVEAAKKLLGSAGG [r13_137_TrMRF]
- folding stability dG unfold [1]: 1.75 ± 0.043 kcal/mol
- folding stability dG unfold [2]: 1.43 ± 0.02 kcal/mol
- folding stability dG unfold [3]: 1.64 ± 0.12 kcal/mol

Sequence: SAGGMISKKLNPPSKEEAEKIAEEIKKKNPNYKVTMTYDPKTGTYTITITPLPKPPPDPKNFKEIIKSAGGS [r16_674_JUSTAS]
- folding stability dG unfold [1]: 1.74 ± 0.15 kcal/mol
- folding stability dG unfold [2]: 1.23 ± 0.12 kcal/mol
- folding stability dG unfold [3]: 1.48 ± 0.21 kcal/mol

Sequence: SAGGMITEKVEKIDDGEIIKLTANLSDPSPVVAWLKATGKNVKLVEIKPTTDPETGNTTVNATFLLPSAGGS [r16_699_JUSTAS]
- folding stability dG unfold [1]: -0.234 ± 0.41 kcal/mol
- folding stability dG unfold [2]: 0.109 ± 0.25 kcal/mol
- folding stability dG unfold [3]: 0.0229 ± 0.22 kcal/mol

Sequence: SAGGMITLTLPIPAEFLEKHGLDEAKKIVLEKAKEELKKLGLSEKYPIKKIEITPEPESLTATIVILSAGGS [r16_368_JUSTAS]
- folding stability dG unfold [1]: 1.95 ± 0.026 kcal/mol
- folding stability dG unfold [2]: 2 ± 0.036 kcal/mol
- folding stability dG unfold [3]: 2 ± 0.04 kcal/mol

Sequence: SAGGMITLTVTREDWDTVYAKLKAEKNVTVKVVKGNTWSTYPASEVKALREEIPADPNEPLTLEIVESAGGS [r16_377_JUSTAS]
- folding stability dG unfold [1]: 0.382 ± 0.24 kcal/mol
- folding stability dG unfold [2]: 0.0201 ± 0.18 kcal/mol
- folding stability dG unfold [3]: 0.283 ± 0.23 kcal/mol

Sequence: SAGGMIVANVNPETDKVTLLITRPVVLYDEETGELREEEVTLVITASLEELEKLEEESGLPLLIIPSSAGGS [r8_337_TrMRF]
- folding stability dG unfold [1]: 2.16 ± 0.071 kcal/mol
- folding stability dG unfold [2]: 1.63 ± 0.1 kcal/mol
- folding stability dG unfold [3]: 1.92 ± 0.15 kcal/mol

Sequence: SAGGMIVEEETKPTPPLPDGTLVTESKVTIYINGKKITTTVKTTTLPDGTKVVETTLKGKKLKIILESAGGS [r16_448_JUSTAS]
- folding stability dG unfold [1]: 3.193 ± 0.027 kcal/mol
- folding stability dG unfold [2]: 2.26 ± 0.07 kcal/mol
- folding stability dG unfold [3]: 2.98 ± 0.075 kcal/mol

Sequence: SAGGMIVTTIPGSPAIKVEIPFPETPFSATITIPIAPDGTVTADLKPHPDMSEELIEKIKELAKELLKSAGG [r13_139_JUSTAS]
- folding stability dG unfold [1]: 0.829 ± 0.037 kcal/mol
- folding stability dG unfold [2]: 1.03 ± 0.024 kcal/mol
- folding stability dG unfold [3]: 0.849 ± 0.092 kcal/mol

Sequence: SAGGMKEITLPNGVKITEVIEKDGYYYIKIYNKKTGKVYEIKVKKGEKIEIKFPKGSTVTKIEIVKKSAGGS [r16_123_TrROS_Hall]
- folding stability dG unfold [1]: 3.24 ± 0.066 kcal/mol
- folding stability dG unfold [2]: 1.7 ± 0.04 kcal/mol
- folding stability dG unfold [3]: 2.8 ± 0.095 kcal/mol
